These results are taken from patent US20230357838.

Data set [1] concerns T1, FlDa01 (Flavobacterium sp.).
T1 sequence: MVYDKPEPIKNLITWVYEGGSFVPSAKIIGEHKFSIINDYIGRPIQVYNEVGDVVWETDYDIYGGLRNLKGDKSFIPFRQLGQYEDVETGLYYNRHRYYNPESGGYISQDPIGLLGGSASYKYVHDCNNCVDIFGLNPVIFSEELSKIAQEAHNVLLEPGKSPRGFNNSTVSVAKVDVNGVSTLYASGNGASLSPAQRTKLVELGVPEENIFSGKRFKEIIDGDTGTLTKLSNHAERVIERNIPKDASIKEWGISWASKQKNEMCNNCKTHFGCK

The subject of another data set is T2, MGYPDa06 (unidentified).
T2 sequence: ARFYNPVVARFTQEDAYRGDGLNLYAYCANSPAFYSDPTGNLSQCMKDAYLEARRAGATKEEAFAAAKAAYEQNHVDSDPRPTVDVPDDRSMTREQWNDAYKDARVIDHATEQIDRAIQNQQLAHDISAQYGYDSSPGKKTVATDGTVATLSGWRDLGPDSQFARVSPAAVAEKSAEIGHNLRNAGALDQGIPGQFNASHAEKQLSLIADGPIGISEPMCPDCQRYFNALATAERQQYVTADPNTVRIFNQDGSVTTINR

A further data set relates to T3, MGYPDa829.
T3 sequence: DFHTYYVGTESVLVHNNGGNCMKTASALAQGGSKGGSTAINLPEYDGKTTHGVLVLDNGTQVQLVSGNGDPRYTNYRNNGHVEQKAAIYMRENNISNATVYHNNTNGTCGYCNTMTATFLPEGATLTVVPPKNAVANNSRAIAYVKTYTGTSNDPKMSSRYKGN

The subject of another data set is T4, RhDa01_extN10.
T4 sequence: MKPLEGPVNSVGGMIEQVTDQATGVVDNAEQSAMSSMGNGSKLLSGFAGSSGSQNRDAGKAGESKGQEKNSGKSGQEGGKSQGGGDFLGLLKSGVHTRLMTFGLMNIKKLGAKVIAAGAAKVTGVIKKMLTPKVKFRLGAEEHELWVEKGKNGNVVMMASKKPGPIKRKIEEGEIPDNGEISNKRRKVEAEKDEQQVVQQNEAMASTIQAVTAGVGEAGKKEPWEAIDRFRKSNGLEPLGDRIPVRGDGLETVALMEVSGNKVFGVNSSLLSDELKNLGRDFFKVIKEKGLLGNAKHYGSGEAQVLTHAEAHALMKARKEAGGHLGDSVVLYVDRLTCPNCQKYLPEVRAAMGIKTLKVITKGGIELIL
The note with it: CG 0.32, CH 0.00.

The test system of the next data set is T5, LbDa02.
T5 sequence: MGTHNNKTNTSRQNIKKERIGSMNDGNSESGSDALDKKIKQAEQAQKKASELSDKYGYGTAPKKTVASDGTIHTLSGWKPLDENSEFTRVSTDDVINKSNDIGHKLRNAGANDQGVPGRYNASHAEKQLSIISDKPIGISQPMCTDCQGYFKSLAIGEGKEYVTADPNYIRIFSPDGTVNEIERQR
The note with it: NGS assay; Table 1 prints SEQ 19 for this name.

Another data set concerns T6, RhDa01.
T6 sequence: T4 sequence
Particulars: CG 0.23, CH 0.00.

The test system of the next data set is T7, Sso7d_VTAGVGEAG_MGYPDa20.
T7 sequence: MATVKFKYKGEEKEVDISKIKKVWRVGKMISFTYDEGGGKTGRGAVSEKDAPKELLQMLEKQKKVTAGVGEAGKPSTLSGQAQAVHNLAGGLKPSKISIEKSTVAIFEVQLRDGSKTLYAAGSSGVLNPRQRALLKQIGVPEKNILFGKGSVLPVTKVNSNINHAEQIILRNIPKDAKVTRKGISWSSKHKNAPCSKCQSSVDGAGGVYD

Another data set has as its target DddA (UniProt P0DUH5).
For data set [2], the system named is T8, Sso7d_LSGLSDDKLKEI_AcDa01.
T8 sequence: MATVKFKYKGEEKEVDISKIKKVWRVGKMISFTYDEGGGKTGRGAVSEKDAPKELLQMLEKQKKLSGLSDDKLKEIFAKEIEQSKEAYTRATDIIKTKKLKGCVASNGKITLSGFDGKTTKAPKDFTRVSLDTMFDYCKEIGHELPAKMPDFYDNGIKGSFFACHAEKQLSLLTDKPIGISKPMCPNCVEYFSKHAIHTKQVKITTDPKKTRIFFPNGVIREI
Particulars: CG 0.99, CH 0.17.

The test system of another data set is T9, HcDa01.
T9 sequence: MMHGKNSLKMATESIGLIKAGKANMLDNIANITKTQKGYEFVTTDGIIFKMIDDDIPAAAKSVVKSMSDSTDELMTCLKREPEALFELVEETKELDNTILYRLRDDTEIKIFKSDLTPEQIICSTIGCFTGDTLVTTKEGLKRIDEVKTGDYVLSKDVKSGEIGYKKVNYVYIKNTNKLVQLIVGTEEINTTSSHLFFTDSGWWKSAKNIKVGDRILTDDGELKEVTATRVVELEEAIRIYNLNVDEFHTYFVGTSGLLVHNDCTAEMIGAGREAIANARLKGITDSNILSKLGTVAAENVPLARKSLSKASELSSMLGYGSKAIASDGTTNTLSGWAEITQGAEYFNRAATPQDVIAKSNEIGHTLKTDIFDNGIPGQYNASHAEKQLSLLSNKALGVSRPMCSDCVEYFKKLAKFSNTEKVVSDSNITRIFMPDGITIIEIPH

In a further data set the test system is T10, Sso7d_GGGVTS_AcDa01.
T10 sequence: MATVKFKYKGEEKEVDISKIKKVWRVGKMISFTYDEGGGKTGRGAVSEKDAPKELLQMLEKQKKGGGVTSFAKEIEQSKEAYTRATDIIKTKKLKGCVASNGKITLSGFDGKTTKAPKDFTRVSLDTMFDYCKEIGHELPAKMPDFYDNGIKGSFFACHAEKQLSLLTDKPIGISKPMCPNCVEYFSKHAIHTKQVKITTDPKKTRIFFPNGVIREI
Particulars: CG 0.79, CH 0.03.

The next data set deals with T11, Sso7d_RhDa01_extN10.
T11 sequence: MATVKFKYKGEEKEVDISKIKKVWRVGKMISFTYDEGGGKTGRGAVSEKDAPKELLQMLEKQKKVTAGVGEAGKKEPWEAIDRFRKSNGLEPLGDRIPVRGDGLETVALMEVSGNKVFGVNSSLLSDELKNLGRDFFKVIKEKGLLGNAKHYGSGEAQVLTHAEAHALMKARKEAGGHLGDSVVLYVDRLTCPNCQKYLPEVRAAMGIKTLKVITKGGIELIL

The subject of data set [3] is d22_PeDa01 (Pseudomonas entomophila).

Consider “unmodified dsDNA (E. coli C2566 genomic)”, for which the activity (fraction deaminated) in [1] amounted to 0.928; in the data set with MGYPDa06 (unidentified) it was 0.997; with MGYPDa829, 0.956; in the data set on RhDa01_extN10, 0.1; in the data set with LbDa02 it was 1; in the data set on RhDa01 it was 0.07. In addition, the activity (fraction deaminated) came out at 0.72 with Sso7d_VTAGVGEAG_MGYPDa20; 0.27 with DddA; 0.41 in [2]; 0 in the data set with HcDa01; 0.26 in the data set on Sso7d_GGGVTS_AcDa01; 0.93 in the data set with Sso7d_RhDa01_extN10. In addition, the values for the activity (fraction deaminated) (in data set [3]; with SsDa01) were 0.79 and 0, respectively.
